From publication PMC4407889, “Improved Catenated Structures of Bovine Peroxiredoxin III F190L Reveal Details of Ring-Ring Interactions and a Novel Conformational State” (PLoS ONE, 2015)

Target: the molecule itself
Assay: crystal structure; reduced form, crystallized in the presence of DTT; sitting-drop vapor diffusion, 16°C, 34% (v/v) 2-methyl-1,3-propanediol, 0.1 M phosphate-citrate pH 4.2; protein 15 mg/ml; space group P2(1)2(1)2; 2.2 Å

B1: bovine peroxiredoxin III F190L (enzyme, UniProt P35705 63-257, looked up)
chain: APAVTQHAPYFKGTAVVSGEFKEISLDDFKGKYLVLFFYPLDFTFVCPTEIIAFSDKASEFHDVNCEVVAVSVDSHFSHLAWINTPRKNGGLGHMNIALLSDLTKQISRDYGVLLEGPGLALRGLFIIDPNGVIKHLSVNDLPVGRSVEETLRLVKAFQFVEAHGEVCPANWTPESPTIKPHPTASREYLEKVNQ
notes: Mitochondrial 2-cys peroxiredoxin III (PrxIII), bovine, lacking its N-terminal 62 amino acid mitochondrial targeting signal; residue 1 is the N-terminal alanine of the mature protein; Construct in pET14b; Twelve chains form one (α2)6 dodecameric toroid, and two toroids interlock as a two-ring catenane in the crystal; In the oxidized form Cys47 of one monomer is disulfide-bonded to Cys168 of its …
For B1, the “stoichiometry N” value was 12.
